{"source": "patent US20090226415A1", "about": "“MODIFIED TRIDEGINS, PRODUCTION AND USE THEREOF AS TRANSGLUTAMINASE INHIBITORS” (priority 2001, published 2009)", "molecules": {"B1": {"name": "recombinant tridegin polypeptide expressed in the yeast Pichia pastoris: tridegin polypeptide encoded by SEQ ID No. 90, secreted from Pichia pastoris; main product lacks the 11 C-terminal residues (protein)", "chain": "MRFPSIFTAVLFAASSALAAPVNTTTEDETAQIPAEAVIGYSDLEGDFDVAVLPFSNSTNNGLLFINTTIASIAAKEEGVSLEKRKLLPCKEWHQGIPNPRCWCGADLECAQDQYCAFIPQCRPRSELIKPMDDIYQRPVEFPNLPLKPREESLEHHHHHH", "modifications": "main product lacks 11 C-terminal residues", "notes": "main product lacks the 11 C-terminal residues"}, "B2": {"name": "H10A: modified tridegin, XnY mutation of SEQ ID No. 1, expressed in Escherichia coli (protein)", "chain": "MKLLPCKEWAQGIPNPRCWCGADLECAQDQYCAFIPQCRPRSELIKPMDDIYQRPVEFPNLPLKPREE"}, "B3": {"name": "R39A: modified tridegin, XnY mutation of SEQ ID No. 1, expressed in Escherichia coli (protein)", "chain": "B2 chain with A10H, R39A"}, "B4": {"name": "Y31A: modified tridegin, XnY mutation of SEQ ID No. 1, expressed in Escherichia coli (protein)", "chain": "B2 chain with A10H, Y31A"}, "B5": {"name": "M48A: modified tridegin, XnY mutation of SEQ ID No. 1, expressed in Escherichia coli (protein)", "chain": "B2 chain with A10H, M48A"}, "B6": {"name": "F34A: modified tridegin, XnY mutation of SEQ ID No. 1, expressed in Escherichia coli (protein)", "chain": "B2 chain with A10H, F34A"}, "B7": {"name": "I45A: modified tridegin, XnY mutation of SEQ ID No. 1, expressed in Escherichia coli (protein)", "chain": "B2 chain with A10H, I45A"}, "B8": {"name": "D50A: modified tridegin, XnY mutation of SEQ ID No. 1, expressed in Escherichia coli (protein)", "chain": "B2 chain with A10H, D50A"}, "B9": {"name": "L24A: modified tridegin, XnY mutation of SEQ ID No. 1, expressed in Escherichia coli (protein)", "chain": "B2 chain with A10H, L24A"}, "B10": {"name": "G12A: modified tridegin, XnY mutation of SEQ ID No. 1, expressed in Escherichia coli (protein)", "chain": "B2 chain with A10H, G12A"}}, "note": "Substitutions are numbered along the chain they refer to. Names may count otherwise.", "data": [{"target": "T1, factor XIIIa (Homo sapiens, UniProt P00488)", "T1 sequence (P00488 39-732 limits assumed)": "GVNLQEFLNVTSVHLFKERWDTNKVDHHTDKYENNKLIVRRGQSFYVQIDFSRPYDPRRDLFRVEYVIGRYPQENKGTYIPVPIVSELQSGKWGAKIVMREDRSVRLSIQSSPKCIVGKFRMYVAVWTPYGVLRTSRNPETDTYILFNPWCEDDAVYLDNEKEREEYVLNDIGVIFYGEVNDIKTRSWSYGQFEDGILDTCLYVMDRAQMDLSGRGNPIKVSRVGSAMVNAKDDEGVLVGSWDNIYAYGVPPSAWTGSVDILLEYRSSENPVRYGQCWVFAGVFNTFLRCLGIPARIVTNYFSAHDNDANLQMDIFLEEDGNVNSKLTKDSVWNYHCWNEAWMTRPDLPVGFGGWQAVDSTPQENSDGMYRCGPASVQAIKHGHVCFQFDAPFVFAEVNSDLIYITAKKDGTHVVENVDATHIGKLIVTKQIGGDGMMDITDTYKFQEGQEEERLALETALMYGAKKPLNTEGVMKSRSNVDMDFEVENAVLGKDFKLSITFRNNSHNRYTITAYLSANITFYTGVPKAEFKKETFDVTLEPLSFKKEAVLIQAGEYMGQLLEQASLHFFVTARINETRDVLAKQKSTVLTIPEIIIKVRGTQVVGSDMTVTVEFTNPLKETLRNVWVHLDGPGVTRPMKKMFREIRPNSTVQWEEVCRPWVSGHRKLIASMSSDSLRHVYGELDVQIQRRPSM", "assay": "biochemical", "assay_type": "biochemical", "conditions": "not given", "experimental": "(§1) The assay is based on factor XIII being activated to form factor XIIIa by thrombin which is present in the reagents. Factor XIIIa links a specific peptide substrate to glycine ethyl ester with ammonium ions being released. The latter are determined in an enzyme reaction which proceeds in parallel. The extinction at 340 nm was used to measure the decrease in NADH. For the measurement, peptides were present in 50% acetonitrile in a stock concentration of 5 mM. The NADH and detection reagents which were supplied by the manufacturer were dissolved in 3 ml of water, with the activator reagent subsequently being dissolved in 3 ml of NADH reagent. For use, the activator and detection reagents were mixed in a ratio of 1:1. In order to carry out the measurement in microtiter plate format, 100 μl of sample (inhibitor or control buffer), 25 μl of factor XIII (10 U/ml) and 150 μl of working reagent were mixed. The measurement was carried out continuously for 20 min at 340 nm, and at 37° C., in a microtiter plate photometer. For the evaluation, the differences in the values measured after 16 and 20 min were compared.\n(§2) The relative inhibitory effect (%) was determined at a final variant concentration of 5.45 μM. The inhibitory effect of the recombinant tridegin polypeptide was normalized to 100% (at 5.45 μM).\n(§3) The above-described Berichrom® assay was used to determine the relative inhibitory effect (%) at a final concentration of the peptides of 7.27 μM. The inhibitory effect of the recombinant tridegin polypeptide, at a final concentration of 7.27 μM, was normalized to 100%.\n(§4) The relative inhibitory effect (%) was determined at a final variant concentration of 5.45 μM. The inhibitory effect of the recombinant wild-type tridegin poly-peptide (at 5.45 μM) was normalized to 100%. The oligonucleotides which were used to produce the abovementioned variants are also specified in the table.", "values": [{"molecule": "B1", "inhibitory activity compared with wild-type tridegin polypeptide expressed in Escherichia coli": "even more effective"}]}, {"target": "T1, factor XIIIa", "assay": "biochemical", "assay_type": "biochemical", "conditions": "Table 2; final variant concentration 5.45 μM; recombinant tridegin polypeptide normalized to 100%", "experimental": "as §1, §2, §3, §4", "units": {"Relative inhibitory effect (%)": "%"}, "values": [{"molecule": "B2", "Relative inhibitory effect (%)": 87}, {"molecule": "B3", "Relative inhibitory effect (%)": 49}, {"molecule": "B4", "Relative inhibitory effect (%)": 69}, {"molecule": "B5", "Relative inhibitory effect (%)": 91}, {"molecule": "B6", "Relative inhibitory effect (%)": 96}, {"molecule": "B7", "Relative inhibitory effect (%)": 115}, {"molecule": "B8", "Relative inhibitory effect (%)": 53}, {"molecule": "B9", "Relative inhibitory effect (%)": 92}, {"molecule": "B10", "Relative inhibitory effect (%)": 97}]}, {"target": "T1, factor XIIIa", "assay": "biochemical", "assay_type": "biochemical", "conditions": "Table 3; final peptide concentration 7.27 μM; recombinant tridegin polypeptide at 7.27 μM normalized to 100%", "experimental": "as §1, §2, §3, §4", "units": {"relative inhibitory effect (% of recombinant tridegin) at 7.27 µM": "%"}, "values": [{"molecule": "Ac-PMDDIYQRPVEFPNLPLKPR-NH2 [SEQ ID No. 25]", "relative inhibitory effect (% of recombinant tridegin) at 7.27 µM": 42.1}, {"molecule": "Ac-IKPMDDIYQRPVEFPNLPLK-NH2 [SEQ ID No. 24]", "relative inhibitory effect (% of recombinant tridegin) at 7.27 µM": 43.5}, {"molecule": "Ac-DDIYQRPVEFPNLPLKPREE-NH2 [SEQ ID No. 26]", "relative inhibitory effect (% of recombinant tridegin) at 7.27 µM": 35.6}]}]}
